Experimental data from patent US12144818B2, “Method for treating cancer in a human patient by administering an anti-CD37 immunoconjugate using various dosing regimens” (DEBIOPHARM INTERNATIONAL, S.A., priority 2018, dated 2024).

Legend:
[1] = Phase 1 monotherapy study, safety; format: in vivo, human
Protocol: As such, a more frequent QW dosing schedule with 0.4/0.2/0.2 mg/kg (combined with rituximab Q3W at 375 mg/m^2) should not increase the risk of neutropenia.

[2] = molecular target: T1, CD37 (Homo sapiens, UniProt P11049); assay: Theoretical receptor occupancy derived from observed Cmax, monotherapy Phase 1 study; format: in vivo; conditions: even at low dose levels
T1 construct: endogenous in cells; host or cells: CD3+ T and CD56+ NK lymphocytes in blood samples from DLBCL patients of Cohorts A and B
T1 sequence (P11049 1-281): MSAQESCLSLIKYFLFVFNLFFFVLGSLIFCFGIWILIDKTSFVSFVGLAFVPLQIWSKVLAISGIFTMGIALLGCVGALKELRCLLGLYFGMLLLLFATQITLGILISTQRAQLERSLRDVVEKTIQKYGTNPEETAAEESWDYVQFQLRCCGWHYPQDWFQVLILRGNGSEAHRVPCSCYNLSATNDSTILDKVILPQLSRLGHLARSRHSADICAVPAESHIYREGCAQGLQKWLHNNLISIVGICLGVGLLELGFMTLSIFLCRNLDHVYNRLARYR
Protocol: Therefore, a 0.4 mg/kg loading dose followed by 2 weekly doses of 0.2 mg/kg is expected to provide adequate target saturation across a 3-weeks cycle.

[3] = molecular target: T1, CD37; assay: CD37 receptor occupancy on CD3+T and CD56+NK cells of Cohort A and B subjects; format: in vivo
Description: The maximum RO observed at C1D2 (cycle 1-dose 2) and C1D3 was greater than 90% for both cohorts.

[4] = QW versus Q3W regimen, with rituximab
Protocol: Adverse events are monitored continuously throughout the study. Adverse events include any noxious, pathologic, or unintended change in anatomical, physiologic, or metabolic function as indicated by physical signs, symptoms, or laboratory changes occurring in any phase of a clinical study, whether or not considered study drug-related. PK parameters that are evaluated include, but are not limited to: Cmax, Tmax, Terminal half-life (t1/2), Vss, CL, AUC0-t, AUCinf.

[5] = tested on: panel of cell lines representative of diverse NHL subtypes (ABC and GCB DLBCL, CLL, MCL); conditions: in combination with rituximab; described in WO 2016/200676; cited from earlier work
[6] = low doses such as 0.4 mg/kg and 0.2 mg/kg; cited from earlier work

For “Debio 1562: immunoconjugate containing the huCD37-3 antibody, the SMCC linker, and the DM1 maytansinoid”, the “maximum tolerated dose (MTD)” value ([1]; Phase 1, without G-CSF) was 1 mg/kg, the neutrophil count ([1]; majority of patients, single Q3W dosing with 0.2-0.4 mg/kg, Phase 1) was “no decrease in neutrophil count” and the “saturation of the CD37 sites (theoretical receptor occupancy)” value [2] was greater than 95%. For the same substance, the “CD37 receptor occupancy (RO) after administration” value ([3]; C1D1, CD3+T and CD56+NK lymphocytes, Cohorts A and B) was “greater than 80%”, the “maximum RO” value ([3]; C1D2 and C1D3, both cohorts) was “greater than 90%” and the “RO just before re-administration” value ([3]; samples just before re-administration in cycle 2 and cycle 3) was “No RO was observed”. The safety [4] was “comparable in the QW regimen and the Q3W regimen”, the “pro-apoptotic activity of the combination” value [5] was “synergistic pro-apoptotic activity” and the clearance [6] was “substantially higher at low doses”. For the same substance, the half-life [6] was “lower”.
